{
  "source": "patent US20180346538A1",
  "about": "(IMMATICS BIOTECHNOLOGIES, published 2018)",
  "biological_target": "T1, HLA-A*02:01 (human)",
  "T1 construct": "MHC monomer captured on streptavidin plates; also called peptide-receptive MHC molecules; MHC class I",
  "test": "UV-ligand exchange ELISA (anti-b2m), yield grade",
  "protocol": "Candidate peptides for T cell based therapies according to the present invention were further tested for their MHC binding capacity (affinity). The individual peptide-MHC complexes were produced by UV-ligand exchange, where a UV-sensitive peptide is cleaved upon UV-irradiation, and exchanged with the peptide of interest as analyzed. […] To determine the yield of the exchange reaction, an ELISA was performed based on the detection of the light chain (β2m) of stabilized MHC complexes.\n96 well MAXISorp plates (NUNC) were coated over night with 2 ug/ml streptavidin in PBS at room temperature, washed 4× and blocked for 1h at 37° C. in 2% BSA containing blocking buffer. […] Peptide-MHC monomers of the UV-exchange reaction were diluted 100 fold in blocking buffer. Samples were incubated for 1 h at 37° C., washed four times, incubated with 2 ug/ml HRP conjugated anti-β2m for 1h at 37° C., washed again and detected with TMB solution that is stopped with NH2SO4. Absorption was measured at 450 nm.",
  "data": [
    {"binder": "SLLNQDLHWSL", "values": [
      {"measurement": "peptide exchange yield", "result": "50 to 75", "unit": "%"}
    ]},
    {"binder": "GLLDLPFRVGV", "values": [
      {"measurement": "peptide exchange yield", "result": "50 to 75", "unit": "%"}
    ]}
  ]
}
